Data reported in article doi:10.1101/2023.12.09.570908 (bioRxiv, 2023).

Tests used:
[1] = biological target: T1, WDR5^22-334 (human, UniProt P61964 22-334); test: ITC
[2] = biological target: T1, WDR5^22-334; test: ITC; remark: listed apart in the source

Kd against the 1:1 mixture of WDR5^22-334 and H3^1-15 [1]: 32 ± 3 µM | Kd [2]: 3.8 µM
Binder: SSRRSSHYPAAVQSQAAAERGASATAKSRAISI [PTENα-NTE^116-148 peptide]
